B1: Dolichol kinase (Homo sapiens), Q9UPQ8 (parent)
chain: MTRECPSPAPGPGAPLSGSVLAEAAVVFAVVLSIHATVWDRYSWCAVALAVQAFYVQYKWDRLLQQGSAVFQFRMSANSGLLPASMVMPLLGLVMKERCQTAGNPFFERFGIVVAATGMAVALFSSVLALGITRPVPTNTCVILGLAGGVIIYIMKHSLSVGEVIEVLEVLLIFVYLNMILLYLLPRCFTPGEALLVLGGISFVLNQLIKRSLTLVESQGDPVDFFLLVVVVGMVLMGIFFSTLFVFMDSGTWASSIFFHLMTCVLSLGVVLPWLHRLIRRNPLLWLLQFLFQTDTRIYLLAYWSLLATLACLVVLYQNAKRSSSESKKHQAPTIARKYFHLIVVATYIPGIIFDRPLLYVAATVCLAVFIFLEYVRYFRIKPLGHTLRSFLSLFLDERDSGPLILTHIYLLLGMSLPIWLIPRPCTQKGSLGGARALVPYAGVLAVGVGDTVASIFGSTMGEIRWPGTKKTFEGTMTSIFAQIISVALILIFDSGVDLNYSYAWILGSISTVSLLEAYTTQIDNLLLPLYLLILLMA
partner: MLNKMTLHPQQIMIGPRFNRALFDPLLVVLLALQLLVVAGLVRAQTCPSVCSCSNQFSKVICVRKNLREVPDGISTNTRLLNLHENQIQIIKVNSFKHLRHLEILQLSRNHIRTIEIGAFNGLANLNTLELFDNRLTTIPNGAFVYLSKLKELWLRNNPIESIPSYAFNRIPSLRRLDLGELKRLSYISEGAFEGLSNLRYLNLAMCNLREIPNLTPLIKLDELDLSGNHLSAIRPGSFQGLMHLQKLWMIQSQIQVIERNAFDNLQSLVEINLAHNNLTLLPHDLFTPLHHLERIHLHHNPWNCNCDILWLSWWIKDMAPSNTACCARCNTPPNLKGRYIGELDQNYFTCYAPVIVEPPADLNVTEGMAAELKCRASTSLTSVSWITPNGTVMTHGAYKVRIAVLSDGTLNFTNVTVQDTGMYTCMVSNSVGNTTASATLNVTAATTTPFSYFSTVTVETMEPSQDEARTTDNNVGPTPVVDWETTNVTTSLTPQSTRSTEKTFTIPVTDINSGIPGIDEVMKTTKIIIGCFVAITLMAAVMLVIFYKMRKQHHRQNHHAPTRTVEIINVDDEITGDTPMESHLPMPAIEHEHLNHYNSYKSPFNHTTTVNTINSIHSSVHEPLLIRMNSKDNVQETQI
B2: Very-long-chain enoyl-CoA reductase (Homo sapiens), Q9NZ01 (parent)
chain: MKHYEVEILDAKTREKLCFLDKVEPHATIAEIKNLFTKTHPQWYPARQSLRLDPKGKSLKDEDVLQKLPVGTTATLYFRDLGAQISWVTVFLTEYAGPLFIYLLFYFRVPFIYGHKYDFTSSRHTVVHLACICHSFHYIKRLLETLFVHRFSHGTMPLRNIFKNCTYYWGFAAWMAYYINHPLYTPPTYGAQQVKLALAIFVICQLGNFSIHMALRDLRPAGSKTRKIPYPTKNPFTWLFLLVSCPNYTYEVGSWIGFAIMTQCLPVALFSLVGFTQMTIWAKGKHRSYLKEFRDYPPLRMPIIPFLL
partner: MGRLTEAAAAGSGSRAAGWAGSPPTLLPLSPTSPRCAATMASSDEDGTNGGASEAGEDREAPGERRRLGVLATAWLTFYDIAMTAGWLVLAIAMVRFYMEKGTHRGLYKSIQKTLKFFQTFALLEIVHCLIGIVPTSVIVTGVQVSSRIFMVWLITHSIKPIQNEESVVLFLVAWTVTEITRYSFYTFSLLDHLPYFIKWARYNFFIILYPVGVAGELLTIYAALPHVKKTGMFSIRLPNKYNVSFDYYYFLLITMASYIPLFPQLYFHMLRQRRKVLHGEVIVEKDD
B3: Golgi SNAP receptor complex member 2 (Homo sapiens), O14653 (parent)
chain: MDPLFQQTHKQVHEIQSCMGRLETADKQSVHIVENEIQASIDQIFSRLERLEILSSKEPPNKRQNARLRVDQLKYDVQHLQTALRNFQHRRHAREQQERQREELLSRTFTTNDSDTTIPMDESLQFNSSLQKVHNGMDDLILDGHNILDGLRTQRLTLKGTQKKILDIANMLGLSNTVMRLIEKRAFQDKYFMIGGMLLTCVVMFLVVQYLT
partner: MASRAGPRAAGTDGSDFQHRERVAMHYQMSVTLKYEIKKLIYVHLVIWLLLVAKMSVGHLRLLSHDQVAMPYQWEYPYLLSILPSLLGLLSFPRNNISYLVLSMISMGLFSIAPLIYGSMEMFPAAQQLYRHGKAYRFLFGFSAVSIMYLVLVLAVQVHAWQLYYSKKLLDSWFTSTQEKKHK
B4: Catenin alpha-3 (Homo sapiens), Q9UI47-2 (parent)
chain: MSAETPITLNIDPQDLQVQTFTVEKLLEPLIIQVTTLVNCPQNPSSRKKGRSKRASVLLASVEEATWNLLDKGEKIAQEATVLKDELTASLEEVRKESEALKVSAERFTDDPCFLPKREAVVQAARALLAAVTRLLILADMIDVMCLLQHVSAFQRTFESLKNVANKSDLQKTYQKLGKELENLDYLAFKRQQDLKSPNQRDEIAGARASLKENSPLLHSICSACLEHSDVASLKASKDTVCEEIQNALNVISNASQGIQNMTTPPEPQAATLGSALDELENLIVLNPLTVTEEEIRPSLEKRLEAIISGAALLADSSCTRDLHRERIIAECNAIRQALQDLLSEYMNNAGKKERSNTLNIALDNMCKKTRDLRRQLRKAIIDHVSDSFLDTTVPLLVLIEAAKNGREKEIKEYAAIFHEHTSRLVEVANLACSMSTNEDGIKIVKIAANHLETLCPQIINAALALAARPKSQAVKNTMEMYKRTWENHIHVLTEAVDDITSIDDFLAVSGMFLFF
partner: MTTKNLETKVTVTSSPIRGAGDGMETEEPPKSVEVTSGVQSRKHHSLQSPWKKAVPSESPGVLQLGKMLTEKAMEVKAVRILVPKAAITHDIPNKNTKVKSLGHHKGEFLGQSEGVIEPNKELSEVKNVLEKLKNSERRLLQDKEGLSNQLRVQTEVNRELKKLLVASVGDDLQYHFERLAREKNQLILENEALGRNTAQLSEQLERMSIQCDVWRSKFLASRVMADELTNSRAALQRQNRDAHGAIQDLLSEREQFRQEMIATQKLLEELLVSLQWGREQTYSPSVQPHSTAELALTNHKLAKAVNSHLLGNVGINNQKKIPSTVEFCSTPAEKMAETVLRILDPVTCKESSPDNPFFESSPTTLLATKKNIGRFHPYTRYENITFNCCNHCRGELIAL
B5: Very-long-chain enoyl-CoA reductase (Homo sapiens), Q9NZ01 (parent)
chain: B2 chain
partner: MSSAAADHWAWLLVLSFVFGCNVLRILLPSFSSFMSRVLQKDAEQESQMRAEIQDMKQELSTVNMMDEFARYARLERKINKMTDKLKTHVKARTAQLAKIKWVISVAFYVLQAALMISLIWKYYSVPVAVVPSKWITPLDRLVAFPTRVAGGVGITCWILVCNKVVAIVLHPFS
B6: Very-long-chain enoyl-CoA reductase (Homo sapiens), Q9NZ01 (parent)
chain: B2 chain
partner: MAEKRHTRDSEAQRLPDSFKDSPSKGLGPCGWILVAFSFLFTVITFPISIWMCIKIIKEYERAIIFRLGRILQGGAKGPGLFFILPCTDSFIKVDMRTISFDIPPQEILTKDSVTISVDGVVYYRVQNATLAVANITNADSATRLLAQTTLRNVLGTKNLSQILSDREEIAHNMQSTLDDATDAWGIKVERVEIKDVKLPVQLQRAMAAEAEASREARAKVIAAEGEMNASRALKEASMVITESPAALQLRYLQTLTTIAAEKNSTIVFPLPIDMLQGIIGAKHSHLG
B7: Dolichol kinase (Homo sapiens), Q9UPQ8 (parent)
chain: B1 chain
partner: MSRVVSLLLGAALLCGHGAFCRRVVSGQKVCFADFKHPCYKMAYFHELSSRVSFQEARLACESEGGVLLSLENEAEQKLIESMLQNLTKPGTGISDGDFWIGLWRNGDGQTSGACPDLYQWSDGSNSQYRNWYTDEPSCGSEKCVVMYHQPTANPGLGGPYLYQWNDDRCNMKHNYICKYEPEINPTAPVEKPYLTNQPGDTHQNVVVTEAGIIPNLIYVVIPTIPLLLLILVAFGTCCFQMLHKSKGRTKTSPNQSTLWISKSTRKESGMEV
B8: Golgi SNAP receptor complex member 2 (Homo sapiens), O14653 (parent)
chain: B3 chain
partner: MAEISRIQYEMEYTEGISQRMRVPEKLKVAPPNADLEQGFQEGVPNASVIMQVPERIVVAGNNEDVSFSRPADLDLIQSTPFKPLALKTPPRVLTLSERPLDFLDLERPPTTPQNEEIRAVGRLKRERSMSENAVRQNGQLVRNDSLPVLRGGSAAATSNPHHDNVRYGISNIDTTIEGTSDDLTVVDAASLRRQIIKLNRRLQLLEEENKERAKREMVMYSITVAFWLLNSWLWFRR

Variants of: B1
Settings: with lrc4c_human LRRC4C

| effect of a mutation on the interaction | Variant |
| --- | --- |
| disrupting interaction strength | Y441S |

Variants of: B2
Settings: with hacd1_human HACD1, B0YJ81

| effect of a mutation on the interaction | Variant |
| --- | --- |
| disrupting interaction strength | P182L |

Variants of: B3
Settings: with jagn1_human JAGN1, Q8N5M9

| effect of a mutation on the interaction | Variant |
| --- | --- |
| with no effect | G144W |

Variants of: B4
Settings: with go45_human BLZF1, Q9H2G9

| effect of a mutation on the interaction | Variant |
| --- | --- |
| disrupting interaction strength | V94D |

Variants of: B5
Settings: with get1_human GET1, O00258

| effect of a mutation on the interaction | Variant |
| --- | --- |
| disrupting interaction strength | P182L |

Variants of: B6
Settings: with stom_human STOM

| effect of a mutation on the interaction | Variant |
| --- | --- |
| disrupting interaction strength | P182L |

Variants of: B7
Settings: with chodl_human CHODL

| effect of a mutation on the interaction | Variant |
| --- | --- |
| disrupting interaction strength | Y441S |

Variants of: B8
Settings: with MFF

| effect of a mutation on the interaction | Variant |
| --- | --- |
| disrupting interaction strength | G144W |

Reference: IntAct's records for PubMed 32296183
